Assay results from article PMC2323294.
Where “and” joins values, the source holds several entries; their conditions need not be identical. Equal values may be shown once.

Biological target: recombinant human gC1qR/HABP1/p32 (mature, amino acids 74-282) (human) (UniProt Q07021)
Test: SEC; gel permeation chromatography of purified recombinant gC1qR/HABP1 on a Superdex 200 HR10/30 column, against molecular weight standards

**Q.** “recombinant human gC1qR/HABP1/p32 (mature, amino acids 74-282) (from UniProt Q07021 74-282) (natural protein; other documents disagree on this pair)” was tested. Which stoichiometry N did it give?
**A.** 3 and 2
